The record followed here is publication doi:10.64898/2025.12.26.696629.

The series addresses T1, SufR6-229-His6 (holo, [4Fe-4S]) (Mycobacterium tuberculosis H37Rv, UniProt O53151 30-253).
T1 sequence: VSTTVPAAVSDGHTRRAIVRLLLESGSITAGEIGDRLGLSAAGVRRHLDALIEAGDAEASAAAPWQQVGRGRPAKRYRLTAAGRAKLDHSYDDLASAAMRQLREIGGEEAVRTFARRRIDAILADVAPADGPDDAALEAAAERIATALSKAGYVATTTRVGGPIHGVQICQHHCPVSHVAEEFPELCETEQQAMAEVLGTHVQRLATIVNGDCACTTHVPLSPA
Briefly: MST.

B1: PsufR 50-bp (dsDNA)
DNA 1: CCGATCAACGGAATTTTGTCACACTGATGTTGTGAAAATCCCGGCGGTCT
DNA 2: AGACCGCCGGGATTTTCACAACATCAGTGTGACAAAATTCCGTTGATCGG
For B1, the Kd came to 235 ± 45.8 nM.
